{
  "source": "patent US20210198366A1",
  "about": "(NGM BIOPHARMACEUTICALS, published 2021)",
  "binders": {"B1": {"name": "soluble human B7-H7-Fc fusion protein (extracellular region of human B7-H7, aa 23-344, and a human Fc sequence) (Fc fusion, not shown: a dimerising Fc or GST)", "chain": "IFPLAFFIYVPMNEQIVIGRLDEDIILPSSFERGSEVVIHWKYQDSYKVHSYYKGSDHLESQDPRYANRTSLFYNEIQNGNASLFFRRVSLLDEGIYTCYVGTAIQVITNKVVLKVGVFLTPVMKYEKRNTNSFLICSVLSVYPRPIITWKMDNTPISENNMEETGSLDSFSINSPLNITGSNSSYECTIENSLLKQTWTGRWTMKDGLHKMQSEHVSLSCQPVNDYFSPNQDFKVTWSRMKSGTFSVLAYYLSSSQNTIINESRFSWNKELINQSDFSMNLMDLNLSDSGEYLCNISSDEYTLLTIHTVHVEPSQETASHN", "notes": "also called hB7-H7-Fc; soluble B7-H7"}, "B2": {"name": "anti-B7-H7 antibody 2D7 (antibody, V domains shown)", "VH": "EVQLQQSGPELVKPGASVKISCKTSGYTFTEYTMHWVKQSHGKSLEWIGGINPNNYGAPYNQKFKGKATLTVDKSSNTAYMELRSLTSEDSAIYYCASGGYYFDYWGQGTTLTVSS", "VL": "DIVMTQSHKFMSTSFGDRVSITCKASQDVGTAVAWYQQKLGQSPKLLISWAFTRHTGVPDRFTGSGSGTDYTLTISSLQAEDLALYYCQQHYDTPFTFGSGTKLEIK", "notes": "Parental mouse hybridoma antibody raised against human B7-H7-Fc"}, "B3": {"name": "soluble biotinylated KIR3DL3 ECD (receptor)", "chain": "QDKPFLSAWPGTVVSEGQHVTLQCRSRLGFNEFSLSKEDGMPVPELYNRIFRNSFLMGPVTPAHAGTYRCCSSHPHSPTGWSAPSNPVVIMVTGVHRKPSLLAHPGPLVKSGETVILQCWSDVRFERFLLHREGITEDPLRLVGQLHDAGSQVNYSMGPMTPALAGTYRCFGSVTHLPYELSAPSDPLDIVVVGLYGKPSLSAQPGPTVQAGENVTLSCSSRSLFDIYHLSREAEAGELRLTAVLRVNGTFQANFPLGPVTHGGNYRCFGSFRALPHAWSDPSDPLPVSVTGNSRHL", "modifications": "biotinylated (site not stated)", "notes": "also called soluble biotinylated KIR3DF3 ECD (so in the source); soluble KIR3DL3"}},
  "key": {"[1]": {"molecular_target": "T1, human KIR3DL3 expressed on the cell surface (human, UniProt Q8N743 26-410)", "T1 construct": "also called cells expressing human KIR3DL3", "test": "cell-based fluorescence assay (CellInsight): soluble B7-H7-Fc titrated on HEK-293T cells transfected with KIR3DL3, Alexa Fluor 488 anti-human Fc detection; soluble B7-H7-Fc on KIR3DL3-transfected cells", "method": "(§1) The molecule CD28H has previously been identified as a receptor of B7-H7 (Zhu et al., 2013, Nature Communications, ncomms3043; Zhu et al. refer to B7-H7 as “B7-H5”). Studies by the inventors have identified KIR3DL3 as a second receptor for B7-H7. HEK-293T cells were transiently transfected with a KIR3DL3 construct. 40,000 cells were aliquoted into each well of a 384-well plate and were transfected with 200 ng of plasmid DNA encoding KIR3DL3 using Lipofectamine™ 2000 (ThermoFisher Scientific). After 48 hours, soluble B7-H7-Fc (serially diluted from 10 to 0.16 pg/ml) was added to the wells and plates were incubated from one hour at room temperature. An Alexa Fluor® 488-labeled anti-human Fc secondary antibody was added to the wells and plates were incubated for one hour at room temperature. Cells were washed with HBSS and fixed for 15 minutes with 7.4% formalin in PBS. Cells were washed with PBS and the fluorescence signals were detected using a CellInsight™ platform (ThermoFisher Scientific). A similar experiment was conducted with cells transiently transfected with a B7-H7 construct and soluble biotinylated KIR3DF3 ECD. An Alexa Fluor® 488-labeled streptavidin was used for detection."}, "[2]": {"molecular_target": "T2, human B7-H7 (soluble analyte in SPR) (human, UniProt Q9UM44 23-344, limits assumed)", "T2 sequence": "B1 chain", "test": "SPR (Biacore)", "method": "(§2) The binding affinities of exemplary anti-B7-H7 antibodies to human B7-H7 and cyno B7-H7 were measured using SPR technology (Biacore system, GE Healthcare Life Sciences). Briefly, anti-Fc antibody (Sigma-Aldrich) was immobilized on all four flow cells of a CM5 chip using amine coupling reagents (GE Healthcare LifeSciences). Exemplary antibodies were captured on flow cells 2, 3, and 4 using flow cell 1 as a reference. Human B7-H7 or cyno B7-H7 (samples ranging from 0.62-40 nM) were injected at a flow rate of 50 μL/min at 37° C. Kinetic data were collected over time and fit using the simultaneous global fit equation to yield affinity constants (KD values) for each antibody.\nThe binding affinity of Hz2D7 to human B7-H7 and cyno B7-H7 was determined using SPR technology (Biacore system) as described herein and compared with the binding affinity of the parental antibody and with a chimeric 2D7 antibody comprising the murine heavy chain and light chain variable regions of 2D7 and a human Fc region."}, "[3]": {"molecular_target": "T3, human B7-H7 expressed on the cell surface (human, UniProt Q9UM44 23-414)", "T3 sequence": "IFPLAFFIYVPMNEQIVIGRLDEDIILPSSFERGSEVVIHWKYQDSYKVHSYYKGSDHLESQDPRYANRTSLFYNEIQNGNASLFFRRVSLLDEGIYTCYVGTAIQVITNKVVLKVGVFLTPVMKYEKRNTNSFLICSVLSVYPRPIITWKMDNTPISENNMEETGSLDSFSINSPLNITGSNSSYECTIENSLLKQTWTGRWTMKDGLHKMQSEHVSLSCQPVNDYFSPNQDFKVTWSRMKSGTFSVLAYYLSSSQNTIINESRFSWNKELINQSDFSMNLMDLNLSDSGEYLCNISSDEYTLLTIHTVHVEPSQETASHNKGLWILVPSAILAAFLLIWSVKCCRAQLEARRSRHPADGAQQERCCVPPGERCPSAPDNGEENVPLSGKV", "test": "cell-based or functional assay"}, "[4]": {"molecular_target": "T2, human B7-H7 (soluble analyte in SPR)", "test": "SPR (Biacore), antibody captured by anti-Fc on CM5 chip, B7-H7 injected, 37 C", "method": "as §2"}, "[5]": {"molecular_target": "B1", "test": "FACS competition: antibody titrated against soluble hB7-H7-Fc binding to HEK-293 cells expressing human CD28H", "method": "(§3) Exemplary anti-B7-H7 antibodies identified by ELISA and FACS were tested for their ability to block binding of soluble B7-H7 to receptors KIR3DL3 or CD28H in a FACS assay. HEK-293 cells were transiently transfected with a construct encoding (i) a membrane-bound KIR3DL3 protein or (ii) a membrane-bound CD28H protein. After 48 hours, transfected cells were suspended in ice cold PBS containing 1% FBS and 0.1% sodium azide and incubated on ice in the presence of […]/ml of soluble human B7-H7-Fc protein and antibodies 2D7, 1D3, 28F3, 16D5, 2F10, 5F7, 5B10, 5C9, or 3H6 (serially diluted from […] to 4.6 ng/ml). A second incubation with an anti-human Fc secondary antibody was performed to detect cells bound by the soluble B7-H7-Fc. The cells were analyzed on a BD FACSCalibur instrument (BD Biosciences) and the data was processed using FlowJo software. Calculated IC50s are shown Table 12."}, "[6]": {"molecular_target": "B1", "test": "FACS competition: antibody titrated against soluble hB7-H7-Fc binding to HEK-293 cells expressing human KIR3DL3", "method": "as §3"}, "[7]": {"molecular_target": "T3, human B7-H7 expressed on the cell …", "test": "cell-based fluorescence assay (CellInsight): soluble biotinylated KIR3DL3 ECD on cells transfected with B7-H7, Alexa Fluor 488 streptavidin detection; soluble biotinylated KIR3DL3 ECD on B7-H7-transfected cells", "method": "as §1"}},
  "data": [
    {"binder": "B1", "values": [
      {"measurement": "Kd", "setting": "[1]", "value": 15, "unit": "nM"}
    ]},
    {"binder": "B2", "values": [
      {"measurement": "Kd", "setting": "[2]", "value": "< 0.1", "unit": "nM"},
      {"measurement": "koff", "setting": "[2]", "value": "1e-05", "unit": "s⁻¹"},
      {"measurement": "Induction of NK-92 cytotoxicity EC50", "setting": "[3]", "value": 1, "unit": "nM"},
      {"measurement": "Kd", "setting": "[4]", "value": "< 0.1", "unit": "nM"},
      {"measurement": "IC50", "setting": "[5]", "value": 2.1, "unit": "nM"},
      {"measurement": "IC50", "setting": "[6]", "value": 2, "unit": "nM"}
    ]},
    {"binder": "B3", "values": [
      {"measurement": "Kd", "setting": "[7]", "value": 192, "unit": "nM"}
    ]}
  ]
}
